Values of other authors, collected in article PMC6615252, “The binding affinity of PTPN13’s tandem PDZ2/3 domain is allosterically modulated” (BMC Molecular and Cell Biology, 2019).

Test system: PDZ4 domain of PTPN13
Conditions: ref [39]; cited from earlier work
Excerpt: This might also explain as to why the observed in vitro affinities of PTPN13 for APC and PRK2 are low in comparison to known examples for PDZ-ligand interactions.

B1: PARG1: RhoGAP protein PARG1 (protein, UniProt Q52LW3 1-1261, looked up)
Rho GTPase-activating protein …: MIAHKQKKTKKKRAWASGQLSTDITTSEMGLKSLSSNSIFDPDYIKELVNDIRKFSHMLLYLKEAIFSDCFKEVIHIRLEELLRVLKSIMNKHQNLNSVDLQNAAEMLTAKVKAVNFTEVNEENKNDLFQEVFSSIETLAFTFGNILTNFLMGDVGNDSLLRLPVSRETKSFENVSVESVDSSSEKGNFSPLELDNVLLKNTDSIELALSYAKTWSKYTKNIVSWVEKKLNLELESTRNMVKLAEATRTNIGIQEFMPLQSLFTNALLNDIESSHLLQQTIAALQANKFVQPLLGRKNEMEKQRKEIKELWKQEQNKMLEAENALKKAKLLCMQRQDEYEKAKSSMFRAEEEHLSSSGGLAKNLNKQLEKKRRLEEEALQKVEEANELYKVCVTNVEERRNDLENTKREILAQLRTLVFQCDLTLKAVTVNLFHMQHLQAASLADSLQSLCDSAKLYDPGQEYSEFVKATNSTEEEKVDGNVNKHLNSSQPSGFGPANSLEDVVRLPDSSNKIEEDRCSNSADITGPSFIRSWTFGMFSDSESTGGSSESRSLDSESISPGDFHRKLPRTPSSGTMSSADDLDEREPPSPSETGPNSLGTFKKTLMSKAALTHKFRKLRSPTKCRDCEGIVVFQGVECEECLLVCHRKCLENLVIICGHQKLPGKIHLFGAEFTQVAKKEPDGIPFILKICASEIENRALCLQGIYRVCGNKIKTEKLCQALENGMHLVDISEFSSHDICDVLKLYLRQLPEPFILFRLYKEFIDLAKEIQHVNEEQETKKNSLEDKKWPNMCIEINRILLKSKDLLRQLPASNFNSLHFLIVHLKRVVDHAEENKMNSKNLGVIFGPSLIRPRPTTAPITISSLAEYSNQARLVEFLITYSQKIFDGSLQPQDVMCSIGVVDQGCFPKPLLSPEERDIERSMKSLFFSSKEDIHTSESESKIFERATSFEESERKQNALGKCDACLSDKAQLLLDQEAESASQKIEDGKTPKPLSLKSDRSTNNVERHTPRTKIRPVSLPVDRLLLASPPNERNGRNMGNVNLDKFCKNPAFEGVNRKDAATTVCSKFNGFDQQTLQKIQDKQYEQNSLTAKTTMIMPSALQEKGVTTSLQISGDHSINATQPSKPYAEPVRSVREASERRSSDSYPLAPVRAPRTLQPQHWTTFYKPHAPIISIRGNEEKPASPSAAVPPGTDHDPHGLVVKSMPDPDKASACPGQATGQPKEDSEELGLPDVNPMCQRPRLKRMQQFEDLEGEIPQFV
- binding to PDZ4 domain: binds
